B1: phage clone 7E3 (scFv on phage) (scFv, V domains shown)
VH: QVQLVESGGGLVNPGGSLRLSCAVSGFTSSGFSINWVRQAPGKGLEWVSSISGIGDSIFYADSVKGRFTISRDNAKNLVFLQMNSVKAEDTAVYYCVRDKWGWGTYSLFDYWGQGTLVTVSS
VL: QAVLTQPPSASGTPGQRVTISCSGSSSNIASNVVSWYQQLPGTAPKVLIYSNNRRPSGVPDRFSGSKSGASASLAISGLQSDDETHYYCAAWDDSLKGPVFGGGTQLTVL
B2: phage clone 3B3 (scFv on phage) (scFv, V domains shown)
VH: EVQLVQSGGGLVKPGGSLRLSCAASGFTFSSYSMNWVRQAPGKGLEWVSSISSSSSYIYYADSVKGRFTISRDNAKNSLYLQMNSLRAEDTAVYYCARVRPPYGMDVWGQGTLVTVSS
VL: NIQMTQSPSSVSASVGDTVTISCRASQGISNWLGWYQQRPGEAPKLLIYAASHLQSGVPSRFSGSGSGTDFVLTITSLQPEDFATYYCQQSNSFPLAFGGGTKLEIK
B3: phage clone 11B7 (scFv on phage) (scFv, V domains shown)
VH: QVQLVQSGGGVVQPGRPLRLSCAASGFNLGSYAMSWVRQAPGKGLEWVSAISGSGGSTYYADSVKGRFTISRDNSKNTLYLQMNSLRAEDTAVYYCAKILGPGNLNYYYYYGMDVWGQGTTVTVSS
VL: SSELTQDPAVSVALGQTVRITCQGDSLRNSYASWYQQKPGQAPVLVIYGNNNRPSGIPDRVSGSRSGNTASLTITGAQAEDEADYYCNSRDSSGNHVVFGGGTELTVL
B4: phage clone 6A6 (scFv on phage) (scFv, V domains shown)
VH: EVQLVESGGGVVQPGGSLRLSCAASGFTFDDYAMHWVRQAPGKGLEWVSLISGDGGSTYYADSVKGRFTISRDNSKNSLYLQMNSLKASDTAMYYCARPRWGRYSSSWPFDYWGQGTLVTVSS
VL: QSALTQPASVSGSPGQSITISCTGTSSDVGTYNYVSWYQQHPGKAPKLMIYDVTDRPSGISNRFSGSKSGNTASLTISGLQAEDEGNYYCSSYTSNRSWVFGGGTKLTVL

Here are results for four molecules from patent EP4722246A1, “TEM8-TARGETED ANTIBODY OR ANTIGEN-BINDING FRAGMENT THEREOF, AND USE THEREOF” (Inxmed (Nanjing) Co., Ltd., priority 2023, dated 2024).

Sequence of hTEM8-his antigen (hTEM8 containing 6 His tags) (human) (Q9H6X2 33-321 limits assumed): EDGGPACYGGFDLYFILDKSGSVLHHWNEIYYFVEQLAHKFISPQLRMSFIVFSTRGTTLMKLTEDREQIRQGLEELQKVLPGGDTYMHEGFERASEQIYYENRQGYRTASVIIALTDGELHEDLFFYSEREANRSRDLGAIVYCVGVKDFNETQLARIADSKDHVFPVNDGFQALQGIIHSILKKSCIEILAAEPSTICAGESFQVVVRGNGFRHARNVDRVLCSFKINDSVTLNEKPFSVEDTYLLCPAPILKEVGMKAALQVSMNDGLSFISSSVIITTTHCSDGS

The experiment has as its target hTEM8-his antigen (hTEM8 containing 6 His tags) (human) (UniProt Q9H6X2). Nature of the experiment: phage supernatant ELISA on hTEM8-his. In general terms: In an ELISA, binding on a coated surface is turned into a signal by an enzyme label.
B1: the hTEM8-his ELISA (OD450) is 2.5 OD450. Under B2 stands 2.86 OD450; under B3, 2.43 OD450; under B4, 2.67 OD450.
